Source: US20250250357A1 (NANJING ZAIMING PHARMACEUTICAL, published 2025)
Read-outs that look alike come from different tables or passages of the source.

Experiments:
[1] = target: T1, human MSLN-FL-his protein (human, UniProt Q13421 296-580); assay: competitive ELISA; row F8-4.5; further: test concentration or dose not given here
T1 construct: made in HEK293E cells, purified on nickel column; also called hMSLN-FL-his; human MSLN full-length protein; not shown: His tag

[2] = target: T2, human MSLN protein endogenously expressed on OVCAR3 tumor cells (human, UniProt Q13421 296-598); assay: FACS on OVCAR3 cells;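 on EC50: flow cytometry of chimeric antibody binding to OVCAR3 cells, 2 h on ice, read as cellular mean fluorescence intensity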
T2 construct: whole, on cells; endogenous expression on a tumor cell line; also called human mesothelin
T2 sequence (Q13421 other isoform, or with tags, fused parts or gaps): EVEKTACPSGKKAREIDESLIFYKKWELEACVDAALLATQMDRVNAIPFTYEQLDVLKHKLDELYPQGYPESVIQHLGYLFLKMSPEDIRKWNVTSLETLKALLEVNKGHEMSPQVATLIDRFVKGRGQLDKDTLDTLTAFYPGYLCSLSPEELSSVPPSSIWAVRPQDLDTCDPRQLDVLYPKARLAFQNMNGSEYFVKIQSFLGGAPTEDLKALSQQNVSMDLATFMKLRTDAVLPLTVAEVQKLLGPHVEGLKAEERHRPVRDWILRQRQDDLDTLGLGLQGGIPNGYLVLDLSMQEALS

[3] = target: T1, human MSLN-FL-his protein; assay: competitive ELISA; row F8-13.8; further: test concentration or dose not given here
[4] = target: T1, human MSLN-FL-his protein; assay: competitive ELISA; row F8-19.21; further: test concentration or dose not given here
[5] = target: T3, human MSLN-R3 protein expressed on HEK293T cells (HEK293T-hMSLN-R3) (human, UniProt Q13421 487-606); assay: FACS on HEK293T-hMSLN-R3 cells;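 further: chimeric antibodies incubated with cells on ice for 2 h, binding read by flow cytometry as mean fluorescence intensity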
T3 construct: C-terminal limit uncertain
T3 sequence (Q13421 495-614): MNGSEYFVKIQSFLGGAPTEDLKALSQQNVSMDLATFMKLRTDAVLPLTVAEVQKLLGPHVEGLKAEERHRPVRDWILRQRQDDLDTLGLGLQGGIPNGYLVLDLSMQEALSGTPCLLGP

[6] = target: T1, human MSLN-FL-his protein; assay: competitive ELISA; row F8-12.13; further: test concentration or dose not given here
[7] = target: T1, human MSLN-FL-his protein; assay: competitive ELISA; row Tab142; further: test concentration or dose not given here
[8] = target: T1, human MSLN-FL-his protein; assay: competitive ELISA; row F8-27.1; further: test concentration or dose not given here
[9] = target: T1, human MSLN-FL-his protein; assay: competitive ELISA; row F8-7.5; further: test concentration or dose not given here
[10] = target: T1, human MSLN-FL-his protein; assay: competitive ELISA; row F8-18.9; further: test concentration or dose not given here
[11] = target: T1, human MSLN-FL-his protein; assay: SPR (Biacore), antibody captured on Protein A chip;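 further: flow cell at 25 °C, antigen injected for 240 s at five concentrations from 200 nM downward, dissociation followed up to 600 s, double-referenced, fitted with Langmuir 1:1 model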
[12] = target: T1, human MSLN-FL-his protein; assay: competitive ELISA; row Tab021; further: test concentration or dose not given here
[13] = target: T1, human MSLN-FL-his protein; assay: competitive ELISA; row F8-31.22; further: test concentration or dose not given here
[14] = target: T1, human MSLN-FL-his protein; assay: competitive ELISA; row F8-5.15; further: test concentration or dose not given here
[15] = target: T1, human MSLN-FL-his protein; assay: competitive ELISA; row F8-15.19; further: test concentration or dose not given here
[16] = target: T4, human MSLN full-length protein (NCBI: AAH09272.1) expressed on HEK293T-hMSLN-B8 cells (human, UniProt Q13421 296-598); assay: FACS on HEK293T-hMSLN-B8 cells
T4 construct: Whole encoded precursor
T4 sequence (Q13421 other isoform, or with tags, fused parts or gaps limits assumed): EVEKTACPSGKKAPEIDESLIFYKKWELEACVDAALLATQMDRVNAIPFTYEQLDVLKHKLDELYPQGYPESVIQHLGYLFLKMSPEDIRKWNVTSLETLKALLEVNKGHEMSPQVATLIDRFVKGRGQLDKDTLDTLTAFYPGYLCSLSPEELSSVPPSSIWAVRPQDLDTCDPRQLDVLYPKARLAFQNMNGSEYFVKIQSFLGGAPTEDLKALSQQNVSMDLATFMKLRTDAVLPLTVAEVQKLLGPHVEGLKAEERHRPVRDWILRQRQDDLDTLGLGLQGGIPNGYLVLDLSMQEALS
Description: (§1) The desired cells were expanded to the logarithmic growth phase in a T-75 cell culture flask. […] After the cells from the previous step were subjected to cell counting, the cell pellet was resuspended to 2×10⁶ cells/mL in a blocking buffer of [PBS+2% (w/w) BSA] and added into a 96-well FACS reaction plate at 50 μL/well. A chimeric antibody (a sample to be tested) was added at 50 μL/well, and the plate was incubated on ice for 2 h. […] After the plate was centrifuged and washed 5 times with a PBST buffer, assay and analysis were performed by FACS (FACS CantoII, purchased from BD). Data analysis was performed by software (Flowjo) to obtain the mean fluorescence intensity (MFI) of the cells.

[17] = target: T5, human MSLN protein endogenously expressed on OVCAR3 tumor cells (human, UniProt Q13421 296-598); assay: FACS on OVCAR3 cells;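 on EC50: flow cytometry of chimeric antibody binding to OVCAR3 cells, 2 h on ice, read as cellular mean fluorescence intensity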
T5 construct: whole, on cells; Endogenous target on OVCAR3 cells; kept apart from the recombinant full-length construct; also called mesothelin
T5 sequence (Q13421 other isoform, or with tags, fused parts or gaps): as the sequence (Q13421 other isoform, or with tags, fused parts or gaps limits assumed) above, with P14R counted along it
Description: as §1

[18] = target: T6, human MSLN-R3 protein (Met487-Ser606 of NCBI AAH09272.1) expressed on HEK293T-hMSLN-R3 cells (human, UniProt Q13421 487-606); assay: FACS on HEK293T-hMSLN-R3 cells
T6 construct: also called Region3
T6 sequence (Q13421 495-614): as the sequence (Q13421 495-614) above
Description: as §1

T1 sequence (Q13421 other isoform, or with tags, fused parts or gaps): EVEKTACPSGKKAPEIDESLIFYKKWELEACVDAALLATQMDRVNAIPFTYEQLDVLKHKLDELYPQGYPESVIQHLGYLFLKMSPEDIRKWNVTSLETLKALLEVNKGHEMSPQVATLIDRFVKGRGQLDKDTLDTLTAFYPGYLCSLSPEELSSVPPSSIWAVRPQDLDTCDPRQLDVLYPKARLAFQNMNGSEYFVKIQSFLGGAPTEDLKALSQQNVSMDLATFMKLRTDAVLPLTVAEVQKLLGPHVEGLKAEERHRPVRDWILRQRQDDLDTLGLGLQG

B1: S009-F8-7.5 (antibody, human IgG1, kappa, V domains shown)
VH: DVQLQESGPGLVKPSQSLSLTCSVTGYSITSGYYWNWIRQFPGNKLEWMAYIRYDGSNNYNPSLKNRISIIRDTSKNQFFLRLNSVTTEDTATYYCAKSYYGMDDWGQGISVTVSS
VL: DIQMTQSPASLSASVGETVTITCRTSGDIHNYLAWYQQKQGKSPQLLVYKAKTLENGVPSRFTGSGSGTQFSLKIDSLQPEDFGTYYCQHFWTTPYTFGGGTKLEIKR
notes: human-murine chimeric antibody, human IgG1/kappa constant regions
In the case of B1, the competition rate [1] is reported as 3.24%, the EC50 [2] is reported as 0.71 nM and the “Maximum mean fluorescence intensity” value [2] is reported as 8990. For the same binder, the competition rate [3] was 3.15%, the competition rate [4] was 14.7% and the “Maximum mean fluorescence intensity” value [5] was 279. For the same binder, the binding result [5] was “no binding”, the competition rate [6] was -23.2% and the competition rate [7] was 2.16%. For the same binder, the competition rate [8] was 3.35%, the competition rate [9] was 85.8% and the competition rate [10] was 11.2%. The Kd [11] was 92.6 nM, the koff [11] was 0.0215 s⁻¹ and the kon [11] was 232000 M⁻¹ s⁻¹. It also gave a competition rate [12] of 14.2%, a competition rate [13] of -71.5% and a competition rate [14] of 83.3%. The competition rate [15] was -15.7%.

B2: S009-F8-12.13 (antibody, human IgG1, kappa, V domains shown)
VH: QVQLQQPGAELVKPGASVKLSCKASGYTFTSYWMHWVKQRPGQGLEWIGMIHPNSGSTNYNEKFKSKATLTVDKSSSTAYMQLSSLTSEDSAVYYCARRTPIITLVGHWYFDVWGTGTTVTVSS
VL: DIVMTQSHKFMSTSVGDRVSITCKASQDVGTAVAWYQQKPGQSPKLLIYWASTRHTGVPDRFTGSGSGTDFTLTISNVQSEDLADYFCQQYSSYPLTFGAGTKLELKR
notes: as for B1
B2 was tested, and the competition rate [1] was 88.2%, the EC50 [2] was 2.24 nM and the “Maximum mean fluorescence intensity” value [2] was 9830. The competition rate [3] was 51.1%, the competition rate [4] was 75.9% and the “Maximum mean fluorescence intensity” value [5] was 135. For the same binder, the binding result [5] was “no binding”, the competition rate [6] was 93.7% and the competition rate [7] was 65.5%. For the same binder, the competition rate [8] was 93.5%, the competition rate [9] was -135% and the competition rate [10] was 10.1%. For the same binder, the Kd [11] was 5.5 nM, the koff [11] was 0.00296 s⁻¹ and the kon [11] was 539000 M⁻¹ s⁻¹. It also gave a competition rate [12] of 6.56%, a competition rate [13] of 92.2% and a competition rate [14] of 99.3%. The competition rate [15] was 98.5%.

B3: S009-F1.59.1 (antibody, human IgG1, kappa, V domains shown)
VH: EVKLEGSGGGLVQPGGSMMLSCVATGFTFSSYWMNWVRQSPDRGLEWVAEIRLKSNGFAAFYAESVKGRFTISRDDSKSSVYLQMNNLRTEDTGIYYCTYFVHWGQGILVTVSE
VL: DIVLTQSPTSLAVSLGQRATISCRTSESVEYFGTILIQWYQQKPGQPPKLLIFGASNVESGVPARFSGSGSGTDFSLNIHPVEEEDIAMYFCQQNRKVPYTFGGGTTLELKR
notes: as for B1
In the case of B3, the “Maximum mean fluorescence intensity” value [16] is reported as 32800, the “Maximum mean fluorescence intensity” value [17] is reported as 445 and the EC50 [18] is reported as 0.31 nM. For the same binder, the “Maximum mean fluorescence intensity” value [18] was 7070.

B4: S009-F8-27.1 (antibody, human IgG1, kappa, V domains shown)
VH: EVQLVESGGGLVKPGGSLKLSCAASGFTFSSYAMSWVRQTPEKRLEWVATISDGGNYTYYPDNVKGRFTISRDNAKNNLYLQMSHLKSEDTAMYYCAGDRGYPYAMDSWGQGTSVTVSS
VL: NIMMTQSPSSLAVSAGEKVTMSCKSSQSVLYSSNQKNYLAWYQQKPGQSPKLLIYWASTRESGVPDRFTGSGSGTDFTLTISNVHAEDLAVYYCHQYLSSLTFGAGTKLELKR
notes: as for B1
B4 was tested, and the competition rate [1] was 92%, the EC50 [2] was 77.9 nM and the “Maximum mean fluorescence intensity” value [2] was 7620. For the same binder, the competition rate [3] was 74.6%, the competition rate [4] was 90.2% and the “Maximum mean fluorescence intensity” value [5] was 120. For the same binder, the binding result [5] was “no binding”, the competition rate [6] was 98.7% and the competition rate [7] was 86.2%. The competition rate [8] was 95.3%, the competition rate [9] was -9.43% and the competition rate [10] was -2.77%. It also gave a Kd [11] of 1.95 nM, a koff [11] of 0.000234 s⁻¹ and a kon [11] of 120000 M⁻¹ s⁻¹. The competition rate [12] was 12.2%, the competition rate [13] was -13.1% and the competition rate [14] was 99.8%. The competition rate [15] was 99.2%.

B5: S009-F1.62.9 (antibody, human IgG1, kappa, V domains shown)
VH: EVQLQQSGADLVKPGASVKLSCTVFGLNFKDTFMHWVRQRPEQGLEWIGRIDPANDNSIYGPKFQDKATITADTSSNTAYLHLSSLTSEDTAVYYCLYFDNWGHGTTLTVSS
VL: DIVMTQAASSEPVTPGESVSISCRSDKSLLHSNGHNYLYWFLQRPGQSPHLLIYRMSNLASGVPDRFSGSGSGTAFTLRISRVEAEDVGVYYCMQHLEYPLTFGAGTKLELKR
notes: as for B1
B5 was tested, and the “Maximum mean fluorescence intensity” value [16] was 9550, the “Maximum mean fluorescence intensity” value [17] was 425 and the EC50 [18] was 0.95 nM. The “Maximum mean fluorescence intensity” value [18] was 6930.

B6: S009-F8-18.9 (antibody, human IgG1, kappa, V domains shown)
VH: EFQLQQSGPELVKPGASVKISCKASGYSFTDYNMNWVKQSNGKSLEWIGIINPNYGTTSYNQKFKGRATLTVDQSSSTAYVQLNSLTSEDSAVYYCARGGYDNEAMDYWGQGTSVTVSS
VL: QIVLTQSPAIMSASPGEKVTMTCSASSSVSYMHWYQQKSGTSPKRWIYDTSKLASGVPARFSGSGSGTSYSLTISSMEAEDAATYYCQQWSSNPPTFGAGTKLELKR
notes: as for B1
In the case of B6, the competition rate [1] is reported as 83.3%, the EC50 [2] is reported as 24.1 nM and the “Maximum mean fluorescence intensity” value [2] is reported as 10800. For the same binder, the competition rate [3] was 77.5%, the competition rate [4] was 91.3% and the “Maximum mean fluorescence intensity” value [5] was 131. For the same binder, the binding result [5] was “no binding”, the competition rate [6] was 97.2% and the competition rate [7] was 85.5%. The competition rate [8] was 96.8%, the competition rate [9] was -116% and the competition rate [10] was 6.6%. The Kd [11] was 3.17 nM, the koff [11] was 0.000876 s⁻¹ and the kon [11] was 276000 M⁻¹ s⁻¹. For the same binder, the competition rate [12] was 2.63%, the competition rate [13] was 98% and the competition rate [14] was 99.7%. It also gave a competition rate [15] of 99.5%.

B7: S009-F8-19.21 (antibody, human IgG1, kappa, V domains shown)
VH: EFQLQQSGPELVKPGASVKISCKTSGYSFTDYNMNWVKQSNGKSLEWIGVINPNYGTTGYNQKFKGKATLTVDQSSSTAYMQLNSLTSEDSAVYYCARGGYDGEAMDYWGHGTSVTVSS
VL: QIVLTQSPAIMSASPGEKVTMTCSASSSVNYMHWYQQKSGTSPKRWIYDTSKLASGVPARFSGSGSGTSYSLTISSMEAEDAATYYCQQWSSYPPTFGGGTKLEIKR
notes: as for B1
With B7 the competition rate [1] was 89.7%, the EC50 [2] was 5.13 nM and the “Maximum mean fluorescence intensity” value [2] was 13000. For the same binder, the competition rate [3] was 82%, the competition rate [4] was 95.4% and the “Maximum mean fluorescence intensity” value [5] was 98. The binding result [5] was “no binding”, the competition rate [6] was 97.3% and the competition rate [7] was 92.2%. It also gave a competition rate [8] of 98.4%, a competition rate [9] of -137% and a competition rate [10] of 6.96%. It also gave a Kd [11] of 1.98 nM, a koff [11] of 0.00172 s⁻¹ and a kon [11] of 871000 M⁻¹ s⁻¹. It also gave a competition rate [12] of 4.93%, a competition rate [13] of 98.5% and a competition rate [14] of 99.5%. The competition rate [15] was 99.8%.

B8: S009-F8-4.5 (antibody, human IgG1, kappa, V domains shown)
VH: QVQLQQPGAELVKPGASVKLSCKASGYTFTIYWMHWVKQRPGQGLEWIGMIHPNSGNTNYNEKFKSKATLTVDKSSSTAYMQLSSLTSEDSAVYYCSLIHWYFDVWGTGTTVTVSS
VL: QIVLTQSPAIMSASPGEKVTMTCSASSSVSYMYWYQQKPGSSPRLLIYDTSNLASGVPVRFSGSGSGTSYSLTISRMEAEDAATYYCQQWSSYPLTFGAGTKLELKR
notes: as for B1
B8 was tested, and the competition rate [1] was 97.5%, the EC50 [2] was 4.93 nM and the “Maximum mean fluorescence intensity” value [2] was 14000. For the same binder, the competition rate [3] was 95.8%, the competition rate [4] was 98.9% and the “Maximum mean fluorescence intensity” value [5] was 192. The binding result [5] was “no binding”, the competition rate [6] was 98.9% and the competition rate [7] was 97.8%. For the same binder, the competition rate [8] was 99.8%, the competition rate [9] was 23.6% and the competition rate [10] was 8.32%. The Kd [11] was 0.824 nM, the koff [11] was 0.000599 s⁻¹ and the kon [11] was 727000 M⁻¹ s⁻¹. The competition rate [12] was 9.76%, the competition rate [13] was 89.7% and the competition rate [14] was 100%. It also gave a competition rate [15] of 100%.
